According to paper PMC2965030 (2009):

Molecular target: t-PA (Homo sapiens, UniProt P00750)
Experiment: SPR

Chain of t-PA (P00750 36-562): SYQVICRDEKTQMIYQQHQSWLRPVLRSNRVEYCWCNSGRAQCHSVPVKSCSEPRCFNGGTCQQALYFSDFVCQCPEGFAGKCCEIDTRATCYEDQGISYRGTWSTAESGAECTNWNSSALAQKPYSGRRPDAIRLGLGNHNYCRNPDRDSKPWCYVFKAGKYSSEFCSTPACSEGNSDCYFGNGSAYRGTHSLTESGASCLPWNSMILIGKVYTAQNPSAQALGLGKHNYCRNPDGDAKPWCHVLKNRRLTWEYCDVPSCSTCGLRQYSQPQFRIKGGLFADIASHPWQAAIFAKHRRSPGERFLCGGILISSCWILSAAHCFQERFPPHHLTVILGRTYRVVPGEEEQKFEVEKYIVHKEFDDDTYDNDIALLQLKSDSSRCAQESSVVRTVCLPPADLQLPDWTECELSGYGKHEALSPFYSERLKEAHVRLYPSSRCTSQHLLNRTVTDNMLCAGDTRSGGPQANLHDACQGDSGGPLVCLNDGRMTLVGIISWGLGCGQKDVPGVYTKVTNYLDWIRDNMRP

B1: β2-glycoprotein I (protein)
chain: GRTCPKPDDLPFSTVVPLKTFYEPGEEITYSCKPGYVSRGGMRKFICPLTGLWPINTLKCTPRVCPFAGILENGAVRYTTFEYPNTISFSCNTGFYLNGADSAKCTEEGKWSPELPVCAPIICPPPSIPTFATLRVYKPSAGNNSLYRDTAVFECLPQHAMFGNDTITCTTHGNWTKLPECREVKCPFPSRPDNGFVNYPAKPTLYYKDKATFGCHDGYSLDGPEEIECTKLGNWSAMPSCKASCKVPVKKATVVYQGERVKIQEKFKNGMLHGDKVSFFCKNKEKKCSYTEDAQCIDGTIEVPKCFKEHSSLAFWKTDASDVKPC
- Kd: 20 nM
